B1: His-XRCC1^161–406 (domain or fragment, human, UniProt P18887 161-406, looked up)
chain: PSQKVTVTKLGQFRVKEEDESANSLRPGALFFSRINKTSPVTASDPAGPSYAAATLQASSAASSASPVSRAIGSTSKPQESPKGKRKLDLNQEEKKTPSKPPAQLSPSVPKRPKLPAPTRTPATAPVPARAQGAVTGKPRGEGTEPRRPRAGPEELGKILQGVVVVLSGFQNPFRSELRDKALELGAKYRPDWTRDSTHLICAFANTPKYSQVLGLGGRIVRKEWVLDCHRMRRRLPSQRYLMAGP
notes: Vector pTWO-E (from pET-17b) adds an N-terminal His6 tag that can be cleaved by rhinovirus 3C; also called wild-type histidine-tagged fragment of human XRCC1 spanning the conserved BRCT1 domain; source: E. coli Rosetta2 (DE3)pLysS, purified (Talon resin, heparin column); not shown: His6, N-terminal, kept

Assays:
[1] = target: ribosylated histone H1 (adsorbed to microwells, ribosylated with PARP1 and NAD+); test: microwell plate binding assay (absorbance at 450 nm); settings: read off a plot
[2] = target: mock-ribosylated histone H1 (adsorbed to microwells, no NAD+); test: as above; settings: 0 μM NAD+, read off a plot
[3] = target: T1, ribosylated PARP1 (adsorbed to microwells, ribosylated with PARP1 and NAD+) (human, UniProt P09874 1-1014, poly (ADP-ribosyl)ated by PARP1 in the presence of 1–50 μM NAD+; sites not stated); test: ELISA; PARP1, histone H1 or BSA adsorbed to microwells (0.1 mg/ml in PBS), mock-ribosylated (no NAD+) or ribosylated with 5 nM PARP1 and 1–50 μM NAD+; 25 nM His-XRCC1 in 20 mM Tris pH7.5, 130 nM NaCl, 30 min on ice; detected with anti-His Mab and HRP secondary, A450; settings: both partners purified
T1 construct: PARP1, poly (ADP-ribose) polymerase 1; 'recombinant, human, full length' is printed for the 5 nM PARP1 of the reaction; Species and form are printed for the PARP1 used as enzyme; I took the adsorbed PARP1 to be the same preparation; also called PARP1 +NAD+; autoribosylated PARP1; source: recombinant
T1 sequence (P09874 whole entry): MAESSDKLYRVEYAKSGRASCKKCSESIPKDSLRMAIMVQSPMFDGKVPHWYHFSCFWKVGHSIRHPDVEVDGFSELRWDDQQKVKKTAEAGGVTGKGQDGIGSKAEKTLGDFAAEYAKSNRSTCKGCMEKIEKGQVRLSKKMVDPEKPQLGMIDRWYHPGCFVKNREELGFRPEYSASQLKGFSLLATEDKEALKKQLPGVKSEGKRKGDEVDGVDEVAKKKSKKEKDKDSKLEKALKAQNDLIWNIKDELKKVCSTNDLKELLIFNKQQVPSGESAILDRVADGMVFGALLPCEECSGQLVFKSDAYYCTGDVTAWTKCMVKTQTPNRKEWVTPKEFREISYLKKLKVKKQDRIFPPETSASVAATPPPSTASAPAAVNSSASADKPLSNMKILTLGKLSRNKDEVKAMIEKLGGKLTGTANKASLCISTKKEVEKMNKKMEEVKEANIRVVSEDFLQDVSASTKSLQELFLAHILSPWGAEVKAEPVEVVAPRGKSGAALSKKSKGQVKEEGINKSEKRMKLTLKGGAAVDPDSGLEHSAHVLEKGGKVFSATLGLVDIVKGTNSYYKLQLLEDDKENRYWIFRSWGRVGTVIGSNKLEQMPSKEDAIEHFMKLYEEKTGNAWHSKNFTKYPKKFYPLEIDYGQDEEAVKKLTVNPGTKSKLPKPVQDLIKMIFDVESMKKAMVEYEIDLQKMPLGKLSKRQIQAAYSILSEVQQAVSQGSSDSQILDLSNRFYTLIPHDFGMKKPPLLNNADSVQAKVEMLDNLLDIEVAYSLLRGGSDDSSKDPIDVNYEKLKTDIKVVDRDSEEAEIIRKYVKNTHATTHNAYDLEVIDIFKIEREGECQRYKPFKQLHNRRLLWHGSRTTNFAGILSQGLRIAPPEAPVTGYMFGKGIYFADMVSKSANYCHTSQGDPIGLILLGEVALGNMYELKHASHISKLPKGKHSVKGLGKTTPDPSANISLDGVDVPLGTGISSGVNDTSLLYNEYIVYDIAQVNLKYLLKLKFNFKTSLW

Row | Molecule | response ([1]; adsorbed histone H1 ribosylated with 1 μM NAD+, parent: est. 1.7) | response ([1]; adsorbed histone H1 ribosylated with 10 μM NAD+, parent: est. 2.1) | response ([1]; adsorbed histone H1 ribosylated with 50 μM NAD+, parent: est. 2.2) | response ([1]; left panel, calf thymus histone ribosylated with 0.5 μM NAD+, no competitor, parent: est. 0.82) | response ([2]; adsorbed histone H1 mock-ribosylated, parent: est. 0.11) | response ([2]; left panel, calf thymus histone mock-ribosylated, no competitor, parent: est. 0.10) | binding result [3]
1 | His-XRCC1^161–406 (from UniProt P18887) R335A; K369A | 0.12 Abs 450nm | 0.78 Abs 450nm | 1.2 Abs 450nm | 0.11 Abs 450nm | 0.1 Abs 450nm | 0.12 Abs 450nm | –
2 | B1 | – | – | – | – | – | – | binds

— article PMC4538820, “The XRCC1 phosphate-binding pocket binds poly (ADP-ribose) and is required for XRCC1 function” (Nucleic Acids Research, 2015)
